Results from patent US20090311248A1.

Biological target: E1s (HCV E1 envelope protein, aa 192-326 of the HCV polyprotein) (Hepatitis C virus (HCV))
Assay: coating ELISA, E1s at 0.5 ug/ml, hybridoma supernatant

O.D. value (450-595 nm): > 2 O.D.
Substance: 4G2 (antibody)
